Like-named read-outs stand apart in the source and are kept apart here.

Holding throughout (experiment): EMSA
For series [1], the target named is T1, LbCas12a (Lachnospiraceae bacterium ND2006, UniProt A0A5S8WF58 1-1228).
Series [2] has as its target T1, LbCas12a. This is another data set of the same source.
For series [3], the target named is T1, LbCas12a. This is another data set of the same source.
Series [4] addresses T1, LbCas12a. This is another data set of the same source.

AAUUUCUACUAAGUGUAGAUAAAGUGCUCAUCAUUGGAAAACGU (structured_RNA) [LbCas12a crRNA (24-nt T1) rGJK_007]: the Kd with LbCas12a [1] was found to be 17.6 ± 2.4 nM; in the series with LbCas12a [2], 38.9 ± 4.7 nM; with LbCas12a [3], 35.8 ± 4.4 nM; with LbCas12a [4], 16.4 ± 2.1 nM.

The values above are taken from article PMC6449189.
